Blank lines part the entries; values can stand above or below the binder they belong to.
Legend:
human PDL1 on cells = human PDL1 on cells (human, UniProt Q9NZQ7 19-290); experiment: cell-based or functional assay
human serum albumin = target: T1, human serum albumin (human, UniProt P02768 25-609); experiment: SPR, SA coupled to chip, pH 5.5
T1 construct: Coupled directly to the CM5 chip; also called HSA; human SA
Experimental: Affinity of molecules to serum albumin (SA) of the different species was determined by SPR measurements using a Biacore T200 device (GE Healthcare). SA was directly coupled to a CM5 sensor chip (GE Healthcare) using amine coupling chemistry. […] The assay was run in a 1× PBS-Tween buffer at pH 5.5.

[1] = target: T2, CD137 on Jurkat NFkB reporter cells (human, UniProt Q07011 24-255); experiment: cell-based or functional assay
[2] = target: T2, CD137 on Jurkat NFkB reporter cells; experiment: cell-based or functional assay; remark: listed apart in the source
Fc tagged human CD137 = target: T3, Fc tagged human CD137 (human, UniProt Q07011 24-186); experiment: SPR
T3 construct: also called CD137-Fc chimeric protein
Method in brief: (§1)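 Kinetics were fitted with a one-to-one Langmuir model to give apparent ka, kd and KD. Binders at 0.12-90 nM (three-fold series) flowed 3 min, with 10 min dissociation and 3 M MgCl₂ regeneration, on a Biacore T200.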

Fc tagged human PDL1 = target: T4, Fc tagged human PDL1 (human, UniProt Q9NZQ7 19-239); experiment: SPR
T4 construct: Bought (Sino Biological, cat. 10084-H02H); captured on the SPR chip; also called PDL1-Fc chimeric protein
Method in brief: as §1

biotinylated human PDL1 [3] = target: T5, biotinylated human PDL1 (human, UniProt Q9NZQ7 19-238, limits assumed, biotinylated); experiment: competition ELISA B7.1/PDL1
T5 construct: also called biotinylated PDL1
Experimental: Plates were blocked for 1 hour at room temperature by adding 300 μl of PBS with 1% BSA and 0.2% tween (dilution buffer) to each well. […] The mixtures were pre-incubated for 1 hour at room temperature under gentle agitation on a rotating mixer (21 rpm) and added to the microplates after 3 wash cycles with 450 μl wash buffer per well. Plates were incubated for 1.5 hours at room temperature under gentle agitation, then 10 ng/ml streptavidin-polyHRP40 was added to each microplate well after three washes with 450 μl of wash buffer per well. After 1 h incubation at RT, plates were washed three times with 450 μl wash buffer and TMB substrate solution was added. The enzymatic reaction was stopped after 6 minutes by addition of 1 M HCl and absorbance was measured at 450 nm using 690 nm as a reference wavelength. For calculation of IC₅₀ values, a four-parameter logistic (4PL) curve fit was performed in Graph Pad Prism using reference subtracted values.

biotinylated human PDL1 [4] = target: T5, biotinylated human PDL1; experiment: competition ELISA PD-1/PDL1
Experimental: Plates were blocked for 1 hour at room temperature by adding 300 μl of PBS with i%BSA and 0.2% tween (dilution buffer) to each well. Inhibitors were serially diluted in 3-fold steps to final concentrations ranging from 300 to 0.005 ng/ml in dilution buffer containing 1 ng/ml biotinylated human PDL1. The mixtures were pre-incubated for 1 hour at room temperature under gentle agitation on a rotating mixer (21 rpm) and added to the microplates after 3 wash cycles with 450 μl wash buffer per well. Plates were incubated for 1.5 hours at room temperature under gentle agitation, then 10 ng/ml streptavidin-polyHRP40 was added to each microplate well after three washes with 450 μl of wash buffer per well. After 1 h incubation at RT, plates were washed three times with 450 μl wash buffer and TMB substrate solution was added. The enzymatic reaction was stopped after 6 minutes by addition of 1 M HCl and absorbance was measured at 450 nm using 690 nm as a reference wavelength. For calculation of IC₅₀ values, a four-parameter logistic (4PL) curve fit was performed in Graph Pad Prism using reference subtracted values.

[5] = target: T6, mouse CD137-Fc chimeric protein (mouse, UniProt P20334 24-187, limits assumed); experiment: SPR
T6 sequence (looked up): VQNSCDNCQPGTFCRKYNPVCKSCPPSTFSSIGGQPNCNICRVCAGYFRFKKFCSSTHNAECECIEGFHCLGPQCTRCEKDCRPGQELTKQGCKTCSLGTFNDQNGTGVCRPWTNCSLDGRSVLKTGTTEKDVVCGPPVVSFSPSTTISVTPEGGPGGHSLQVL
Method in brief: as §1

IC50 (ng/ml), NF-AT potency assay, +HSA (human PDL1 on cells): 50.4 ng/mL
rel. IC50 (avelumab/test), +HSA (human PDL1 on cells): 1.04 fold
Kd (human serum albumin): 0.976 nM
IC50 (ng/ml) (EC50 in Table 16C), NFkB reporter, HCC827 + IFNg, 24 h, +HSA [1]: 7.61 ng/mL
rel. IC50 (PRO1186/test), 24 h [1]: 0.87 fold
Area under the curve (calculated using PRO885 normalized data), first line (6 h by the order of the upper part) [2]: 191
Area under the curve (calculated using PRO885 normalized data), second line (24 h by the order of the upper part) [2]: 207
EC50 [ng/ml], NF-kB reporter, HCC827 + IFNg, +HSA, 6 h [2]: 7.38 ng/mL
IC10/EC90 ratio, first line (6 h by the order of the upper part) [2]: 81.9
IC10/EC90 ratio, second line (24 h by the order of the upper part) [2]: 523
Maximum NF-kB activation (rel. to PRO1186) [%], first line (6 h by the order of the upper part) [2]: 108%
Maximum NF-kB activation (rel. to PRO1186) [%], second line (24 h by the order of the upper part) [2]: 119%
rel. Area under the curve (AUCsample/AUCPRO1186), first line (6 h by the order of the upper part) [2]: 1.11 fold
rel. Area under the curve (AUCsample/AUCPRO1186), second line (24 h by the order of the upper part) [2]: 1.37 fold
rel. EC50 (EC50, PRO1186/EC50, sample), NF-kB reporter, 6 h [2]: 1.74 fold
rel. EC50 (EC50, PRO1186/EC50, sample), NF-kB reporter, 24 h [2]: 0.87 fold
rel. IC10/EC90 (ratio of sample/ratio of PRO1186), first line (6 h by the order of the upper part) [2]: 0.25 fold
rel. IC10/EC90 (ratio of sample/ratio of PRO1186), second line (24 h by the order of the upper part) [2]: 1.66 fold
Kd (Fc tagged human CD137): 1.7 nM
koff (Fc tagged human CD137): 0.00054 s⁻¹
kon (Fc tagged human CD137): 330000 M⁻¹ s⁻¹
Kd (Fc tagged human PDL1): 0.0092 nM
kon (Fc tagged human PDL1): 4.2e+06 M⁻¹ s⁻¹
IC50 (biotinylated human PDL1 [3]): 10.7 ng/mL
rel. IC50 (IC50 avelumab/IC50 test) (biotinylated human PDL1 [3]): 1.38 fold
IC50 (biotinylated human PDL1 [4]): 2.65 ng/mL
rel. IC50 (IC50 avelumab/IC50 test) (biotinylated human PDL1 [4]): 0.86 fold
B1: PRO1479 (other)
chain: DIQMTQSPASLSASVGDRVTITCQASQSIGTYLAWYQQKPGKPPKLLIYRAFILASGVPSRFSGSGSGTDFTLTISSLQPEDFATYYCQSNFYSDSTTIGPNAFGTGTKVTVLGGGGGSEVQLVESGGGLVQPGGSLRLSCAASGFSFSNSYWICWVRQAPGKCLEWIGCTFVGSSDSTYYANWAKGRFTISRDNSKNTVYLQMNSLRAEDTAVYYCARHPSDAVYGYANNLWGQGTLVTVSSGGGGSGGGGSGGGGSGGGGSIQMTQSPSSLSASVGDRVTITCQASQSINNVLAWYQQKPGKAPKLLIYRASTLASGVPSRFSGSGSGTDFTLTISSLQPEDFATYYCQSSYGNYGDFGCGTKVTVLGGGGGSEVQLVESGGGLVQPGGSLRLSCAASGFSFNSDYWIYWVRQAPGKGLEWIASIYGGSSGNTQYASWAQGRFTISRDNSKNTVYLQMNSLRAEDTAVYFCARGYVDYGGATDLWGQGTLVTVSSGGGGSGGGGSIQMTQSPSSLSASVGDRVTITCQSSESVYSNNQLSWYQQKPGQPPKLLIYDASDLASGVPSRFSGSGSGTDFTLTISSLQPEDFATYYCAGGFSSSSDTAFGGGTKLTVLGGGGGSGGGGSGGGGSGGGGSEVQLVESGGGLVQPGGSLRLSCAASGFSLSSNAMGWVRQAPGKGLEYIGIISVGGFTYYASWAKGRFTISRDNSKNTVYLQMNSLRAEDTATYFCARDRHGGDSSGAFYLWGQGTLVTVSS
notes: trispecific scDb-scFv; also called 38-02-A04 sc13 scDb-i/37-20-B03 sc09.1 scDb-o/19-01-H04 sc03 scFv

Kd [5]: 420 nM
Kd (Fc tagged human CD137): 3.4 nM
koff (Fc tagged human CD137): 0.00084 s⁻¹
kon (Fc tagged human CD137): 250000 M⁻¹ s⁻¹
koff (Fc tagged human PDL1): 7.6e-05 s⁻¹
kon (Fc tagged human PDL1): 2.8e+06 M⁻¹ s⁻¹
B2: PRO1134 (bispecific antibody)
chain: DIQMTQSPSSLSASVGDAVTITCQASQSINDYLAWYQQKPGKSPKLLIYKASTLASGVPSRFSGSGSGTDFTLTISSLQPEDFATYYCQQGYIITDIDNVFGTGTKVTVLGGGGGSQVQLQESGPGLVKPSETLSLTCKVSGFSFSNSYWICWIRQPPGKGLEWIGCTFVGSSDSTYYANWAKGRVTISVDSSKNQFSLKLSSVTAADTAVYYCARHPSDAVYGYANNLWGQGTLVTVSSGGGGSGGGGSGGGGSGGGGSIQMTQSPSSLSASVGDRVTITCQASQSINNVLAWYQQKPGKAPKLLIYRASTLASGVPSRFSGSGSGTDFTLTISSLQPEDFATYYCQSSYGNYGDFGTGTKVTVLGGGGGSEVQLVESGGGLVQPGGSLRLSCAASGFSFSSGYDMCWVRQAPGKGLEWVGCVVAGSVDITYYASWAKGRFTISRDNSKNTVYLQMNSLRAEDTATYYCARKDAYSDAFNLWGPGTLVTVSS
notes: scDb; also called 38-02-A04 sc01 scDb-i/33-03-G02 sc07 GL VH3 scDb-o

From patent US20230192897A1 (NUMAB THERAPEUTICS, published 2023)
